Reference: the DeepSol protein solubility set

Test: soluble on expression in E. coli; label from the status in PepcDB or PDB records

Row | Sequence | soluble on expression in E. coli
1 | HAYKNALYDDEVSQFSNNWPLYYPLTARKFIYKHDLVDENIASKNRVELTNIERSSLNYPLAPIQVQSKEKQPNVLFILVDAWRYSDATPEVMPNVSKFAEKTVNFTQHMSGGNSTQAGIFSLFYSLPATYWESFYASQRSPVFMDTLQAEGYRMGIFGSAPLTSPPLSRTVFKKVSDLTLKQTGETAVERDQQITDKFIEFQKQDSDKPYFGFLFYDAAHGTVFPEPEFAKFKPYWERVDHILLNNDFDASLYHNRYKNSLYYIDSLIDDVLKNVDLDNTIVVISSDHGEEFNDHKMNYWGHTGNYSDVQVHVPLYVYMPNRQPEQIDYRTTHFDVVPTMMNTLFDVQGTTSSYSVGHNLFDSSAPRDWYIAGSYYNYALVGKELMLVVNPGGHSQQLNRQLKVEKEQKVPVDIIRHSLDEMSRFYKKG | not soluble
2 | MGHHHHHHMPEINTNHLDKQQVQLLAEMCILIDENDNKIGAETKKNCHLNENIEKGLLHRAFSVFLFNTENKLLLQQRSDAKITFPGCFTNTCCSHPLSNPAELEESDALGVRRAAQRRLKAELGIPLEEVPPEEINYLTRIHYKAQSDGIWGEHEIDYILLVRMNVTLNPDPNEIKSYCYVSKEELKELLKKAASGEIKITPWFKIIAATFLFKWWDNLNHLNQFVDHEKIYRM | soluble
3 | MVVSIITPLYKVEDFIARCADSLFRQSYTEIEYIFVDDCSSDRSVEVLLQVAERYPQLQQQIRILHHESNRGVAAARETGLAAATGEYVYWVDADDWIEPDAIEKMVVRSEQGQKDIIACGWYLCFRQNERRMPMPCYADAETALRGMLSGTMRWNLWLYMIKRDLYLMNDIHFMEGENVGEDMLVLIKLFSHAKSIGFVKDAFYHYVKQNENSLTRLSPEQQMKRQMRNLQAATDYLVTHFIGKYEKEINFFKLNAKMPLLISNDKNSYRTWTACFPEANKYIMANKRQTLRMRLVQLMAAKRQFWLVELYYQLVFKFVYGILYK | not soluble
4 | QDLTLSFNHIKSAVIYSAYPLTDKQVGELVQMLNKRFDSELKISVEIEPELIGGIKVEVGDQVLDLSVQGKLSALYTTMTN | not soluble
5 | MGSDKIHHHHHHMNSTMQVLVIGGTGTLGRQIAKNAIDAGHKVRCMVRKPKAASFLQEWGCELTRGNLLNKEDIEYALDGIDAVIDAATSRPDDPRSVYETDWDGKLNLFNACEEKNVKRVVFLSLLAAEKYREIPLMDIKYCTEELLVSSSLDYTILQGVAFMQGAIGQFAIPILNNEPVWISGNPTDIAYMNTQDIARFAVAALDRPQTIKGRFPIVGPKAWSAKGLVDLCEKFSEKRARVLKVSPTIISIAQSVVSFFEPTLNVAERLSFSELSGSGGKLDAPMEDTYTAFGLNPADTTTMEGYIKEYYGVILKRLKDIGVDLDIEEKKKFPI | not soluble
6 | DSDLYAELRCLCIKTTSGIHPKNIQSLEVIGKGTHCNQVEVIATLKDGRKICLDPDAPRIKKIVQKKLAGDESAD | soluble
7 | MNKTELIKNVAQNAEISQKEATVVVQTVVESITNTLAAGEKVQLIGFGTFEVRERAARTGRNPQTGEEMQIAASKVPAFKAGKELKEAVK | soluble
8 | MGSCMKWDYGEMEDFSVSASGLFITNEGNFQYSNATLSYYDPATCEVENEVFYRANGFKLGDVAQSMVIRDGIGWIVVNNSHVIFAIDINTFKEVGRITGFTSPRYIHFLSDEKAYVTQIWDYRIFIINPKTYEITGYIECPDMDMESGSTEQMVQYGKYVYVNCWSYQNRILKIDTETDKVVDELTIGIQPTSLVMDKYNKMWTITDGGYEGSPYGYEAPSLYRIDAETFTVEKQFKFKLGDWPSEVQLNGTRDTLYWINNDIWRMPVEADRVPVRPFLEFRDTKYYGLTVNPNNGEVYVADAIDYQQQGIVYRYSPQGKLIDEFYVGIIPGAFCWKLEHHHHHH | not soluble
9 | MGSDKIHHHHHHMDTDLLKTFLEVSRTRHFGKAAENLYLTRSAVSFRVKQLESILGVALFERQRNNIQPTPAGERMLGHAEAVLTAWERAKQDVSLSQLQSTQLAIGAGPNIWDAYLQGYLQGLHVGLPGVALRTEVLPANAMTRQLMDRTLDIAISFDPPKLDQFELVQLGQINLLLVSSLKGQTGTAVLPGQYVKVDWGTAFNIVHAQEYASLPVPTLHTSSARIALDFILNNGGCAFLPEHLVQHALHSGELHHVSGASAISRNVYVAYWAENDRLAQIKQAIDFLRDDGSVFAHATI | not soluble
10 | MLGVFQKRCASTAPLIRPIQRVLVANRGEIAIRVQNTARKMGIETVAVFSDADRNSLFVKKADKAYHIGPPLAAESYLNMDKIINSALRSGAQAIHPGYGFLSENAGFAEKCAQAGLVFIGPPAQAIRDMGAKNVSKQIMEDAKVPVVKGFHGEDQSDANLKKKSAEIGYPVMLKAVYGGGGKGMRIAWNEAEFEEKLASARNEAKKSFGNDEMLVEKFVEKPRHVEVQVFGDHHGNYVHLWERDCSVQRRHQKIIEEAPAPNMEHDTRVKLGESAVRAAAAVGYVGAGTVEFIMDPRGEFYFMEMNTRLQVEHPVSEAITGTDLVEWQLRVAQGEKLPLKQSEIPLNGHAFECRVYAEDTRKGAFMPTAGRLNYVDFPEDARIDTGVVSGDEVSIHYDPMIAKVVVWGQDRAVAAAKLESALARTRISGLPTNIDFVRRVLAHPEFAAGNVYTDFIPDHQKELFAESETPAEIYVESAVAHALAALQKSDAGVFQNLSFFRMNLSPKYIFKIDGKDVSIRFDSDSRLTVSYDGNSYETLLNDIESTTDGSFKFTLEANGRRWSTVVKNLGNSLMVNGVGQNEYETPQIHETFDSLSGGAASHSAVAPMPGIIEKILVKPGEQVTTGQALVVMTAMKMEYIIRAPEDSTVEHIKCQAGKNVPKNAVLVQFA | not soluble
11 | MTVFSGVNKIEFEGTFEGIGKDVVMSQMIRALQKHFPSIRDKNYEFSLFLHIFQRYVLENTSITHDLVCDKIRLPIIDEVVELDDIKNYGLLEGKLLSKLAILKLTGKANPIIGKESPLFEVKNGMSSLDVIVRQTQNLNVRYNSDVPLIFMTSLETESQVSNFLEEHYSSSKVRWKTVVQSSFPQIDKDRLLPIDLQINSHENDFWYPCGTGNLTDTLYFSGELDKLIAQGKEILFVSNVDNLGATGDLNILNFIINEKIEYLVEVVERTANVSNTGVLATYKGKLRSVYYNCLSNESASTCRIVNTNNIWIDLKKLKVLIESNSLNLPIHSSESKITHKNEEIECLQFKTQLVDCIAFFPNSRVLKVSRDRFLPLRTCKDLFLLKSTLYDLDSNGTFNLYPLKFGLLPSIDLGDEFATYETFKIGVPDIPNILELEHLTVMGNVFFGRNITLKGTVIIICDENDVITVPDGSILENVTIWHKSQLEDMNGY | not soluble
12 | MGPHFTLLLAALANCLCPGRPCIKCDQFVTDALKTFENTYLNDHLPHDIHKNVMRMVNHEVSSFGVVTSAEDSYLGAVDENTLEQATWSFLKDLKRITDSDLKGELFIKELLWMLRHQKDIFNNLARQFQKEVLCPNKCGVMSQTLIWCLKCEKQLHICRK | not soluble
13 | MDKTVFQQDLAPYVKYSLNKKKRWETGNDKNYLSEVQKRYRGMDMFVIDRVRLNSSPYFCFISRENFFHNYFLQFPIRQLHQLNADNSYSYVYANQTYGQSYKSLQPENRSPSKSKSAKKPELYQNAKVAYHIITPPKNYEKLQAPKFCPGSSDRNLTHRTLTHWRRVKRMRDALLSLRYEKFEVLDEEVDMVDDYLIFDQYDPPRKLLV | not soluble
14 | MSLKAKYVWVALLALTFFGCDDNTGTIGWDMLPDSDQNINGRYTTYELTTNSDLSGPVFAKTSVGYVGKFTDKEFGEYEASFLAQLNSPDGISFPSVYDPETNPKGVMAGDSIHTAELILYYKSYFGDSINPCRMTVYELDENLTQNYYTDIDPLKYYNPNNLLARKAYTAVDQSLSDSIRNSDDFYPNVRLTSEEITKLGKRIYRLNRDHPEYFKTSEAFINNVFKGIYAKNDYGNGTILYVDQINLNVVIRCHEKDSLGNNLKKKNGADSLYYTTRTFATTKEVIQANKFVNSEKLNEIAKKTDCTYLKSPAGIFTQATLPINKIYEELSHDTINAVKLTFNSYNQPDNGKFSMKAPTYVLLLREKERQSFFEENKLTDNITSYLAVHNAIISNKPTTNQYVFTNLTRLINACVNEKQEAKKKAGDSWNEAAWEAANPDWNKVVLIPVLVQYDSSSNKNMISIQHDLQPGYVKLEGGPDGTKLKLEVTYTNFNGKEGHHHHHH | not soluble
15 | MGSDKIHHHHHHMNYKLISIDLAKTVFQVAAFNPDNTIAFNRKINRPALLDMLRQCEPTLVVMEACYSANYWGRTIEKLGHTVKLIPARMVKAMLVGNKNDANDAVAIGETAGRPKVSLLRPKTVEQQDIQSLLRIRERLVENRTANCNQLRGFLAEYGLIVAKTRRQLMLAIPLILEDADNELSTVARGFIQRLYEFQLYLNEQIDQVAQDILALAQAMPQYPLLLTIPGVGPIVASTLLASINEVNDFKNGRQLAAWLGLTPSQYSSGTTNRLGKITKRGNQTLRRLLIHGARTVVNWCDKKDDSLSLWLQRLKQRQHVCKVTVALANKMARMVFVVMSRGQAFDMNKACKLAT | not soluble
16 | MAHHHHHHSLMLKKNDIIQVAISDLSHEGAGVAKHDGFVFFVDNALPEEVIDMRVLKVNKNSGFGKVEAYHYLSSARNADVNLTYLRTGIADLGHLTYEDQLTFKKKQVQDSLYKIAGISDVTVESTIGMTEPLAYRNKAQVPVRRVNGQLETGFFRKHSHDLIPISDYYIQDKEIDRLINFTRDLLRRFDIKPYDETEQTGLLRNIVVRRGHYSGEMMLVLVTTRPKVFRVDQVIEKIVEAFPAVVSIIQNINDKNTNAIFGKDFKTLYGKDTITDSMLGNNYAISAQSFYQVNTVMAEKLYQTAIAFSDLSKDDIVIDAYSGIGTIGLSFAKTVKAVYGVEVIEAAVRDAQQNAALNGITNAYFVADTAEHAMATWAKDGIKPSVILVDPPRKGLTESFIQASVAMGPQKITYVSCNPATMARDIKRYQELGYKLAKVQPVDLFPQTHHVECVVLLIKEEG | not soluble
17 | MVNLTRIYTRTGDKGTTALGDMSRVPKTDLRISAYADANEANAVIGTAIALGGLPEEVVKVLVRVQNDLFDVGADLSTPVVENPEYPPLRVEQFYVDKLEADCDRYLAEVEKLRSFILPGGTAGAALLHQACTVVRRAERSTWAALEAHGETMNPLTATYLNRLSDLLFILARVANKEVGDVLWVPGGERLEHHHHHH | soluble
18 | MGESGTKSRFPIRVQLEANKQYYWCRCGLSQSQPFCDGAHRGTGMNPVVFVVRETSPVWLCVCKETKNIPFCDCFRTDLEHHHHHH | not soluble
19 | DAPAGGNAFEEMEKHAKEFQKTFSEQFNSLVNSKNTQDFNKALKDGSDSVLQQLSAFSSSLQGAISDANGKAKEALEQARQNVEKTAEELRKAHPDVEKEANAFKDKLQAAVQTTVQESQKLAKEVASNMEETNKKLAPKIKQAYDDFVKHAEEVQKKLHEAATKQ | soluble
20 | RWQEGNRITLLENGDQYYPALFAAIGRASRRVILESFIWFEDEVGRRLHAVLLEAARRGIQVEVLLDGYGSPDLSDEFVGELTAAGVIFRYYDPRPKLMGMRTNLFRRMHRKIVVIDDTTAFVGGINYSAEHMSDYGPEAKQDYAVQVEGPVVLDILQFELENLPNSETARRWWRRRRH | not soluble
21 | MGSSHHHHHHGKTIFVIVPTNEEQVAFLEALAKQDELNFDWQNPPTEPGQPVVILIPSDMVEWFLEMLKAKGIPFTVYVEEGGSENLYFQGGGGGGQSPRDAHTHTHTHTDAHKHVLVHICVCVCACVCVSYSLHSTLALSLPAFSPHCHSLRLGFHVFRKQRARTKTAAVAEQRGLRWTHTTARTAKSGWPPRGHTDTHTHTHTHTHITWEYASSGMTLVFEARRLPFGSISEVYAASIQPIVALHALDKLPLWDRCMLVAVLPVVQQRHSASAAAAPPSTVVRPSLTRNDSDNADAAAASLSSATVRAANHEERVNASPELAGAPSLEDVALALTIVRALDELEVVYDSSISTRAELEQQQQQQPSLPAASLAEAPRRAFKQPKKTSEELLMEQLLQERFTDTAPYLLESSDEGGENSADAAVDVAMCFTVKGESLGIGSATIFGGHGYHP | not soluble
